Test results reported in patent US12036274B2, “Recombinant MPT protein derived from MPT63 and MPT64 and use thereof” (priority 2021, dated 2024).

T1: p47phox (Homo sapiens, UniProt P14598)
T1 sequence (P14598 1-390): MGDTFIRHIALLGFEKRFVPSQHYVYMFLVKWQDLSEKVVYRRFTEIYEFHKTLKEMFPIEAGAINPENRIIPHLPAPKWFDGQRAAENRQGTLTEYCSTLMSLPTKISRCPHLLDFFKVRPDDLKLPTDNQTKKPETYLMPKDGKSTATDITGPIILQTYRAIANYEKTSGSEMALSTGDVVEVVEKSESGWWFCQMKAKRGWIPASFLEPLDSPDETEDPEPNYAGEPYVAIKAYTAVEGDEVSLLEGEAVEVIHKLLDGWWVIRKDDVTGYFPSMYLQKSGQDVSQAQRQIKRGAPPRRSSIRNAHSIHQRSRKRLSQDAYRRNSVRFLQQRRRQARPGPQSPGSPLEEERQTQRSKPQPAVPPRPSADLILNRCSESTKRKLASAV

T2: TBK1 and HK2 (Homo sapiens, UniProt Q9UHD2)
T2 construct: endogenous in cells; host or cells: THP-1
T2 sequence (Q9UHD2 1-729): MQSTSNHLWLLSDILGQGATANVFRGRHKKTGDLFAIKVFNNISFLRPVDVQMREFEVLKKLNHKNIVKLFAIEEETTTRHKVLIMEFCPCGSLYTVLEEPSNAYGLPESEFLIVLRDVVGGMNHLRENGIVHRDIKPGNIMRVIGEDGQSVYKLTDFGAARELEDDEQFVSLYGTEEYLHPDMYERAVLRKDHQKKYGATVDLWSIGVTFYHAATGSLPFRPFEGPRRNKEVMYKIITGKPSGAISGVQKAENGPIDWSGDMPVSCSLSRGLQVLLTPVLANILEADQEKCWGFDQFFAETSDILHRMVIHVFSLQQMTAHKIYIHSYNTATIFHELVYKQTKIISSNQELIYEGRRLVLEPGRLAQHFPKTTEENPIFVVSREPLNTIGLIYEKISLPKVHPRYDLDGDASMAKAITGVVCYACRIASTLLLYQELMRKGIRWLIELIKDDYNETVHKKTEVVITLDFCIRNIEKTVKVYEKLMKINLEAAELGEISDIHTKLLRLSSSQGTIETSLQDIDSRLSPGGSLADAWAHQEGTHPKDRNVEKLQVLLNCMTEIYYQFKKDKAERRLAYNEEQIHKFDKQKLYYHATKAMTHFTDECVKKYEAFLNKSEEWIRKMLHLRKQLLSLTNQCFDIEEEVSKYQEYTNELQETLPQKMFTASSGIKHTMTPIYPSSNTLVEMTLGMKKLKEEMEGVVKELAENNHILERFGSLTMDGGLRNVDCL

B1: MPT63: secreted antigen of Mycobacterium tuberculosis, recombinant, purified with the 6×His bacterial expression system (protein)
chain: AYPITGKLGSELTMTDTVGQVVLGWKVSDLKSSTAVIPGYPVAGQVWEATATVNAIRGSVTPAVSQFNARTADGINYRVLWQAAGPDTISGATIPQGEQSTGKIYFDVTGPSPTIVAMNNGMEDLLIWEP
modifications: left off: small tags and cut ends
notes: secreted antigen of Mycobacterium tuberculosis, recombinant, purified with the 6×His bacterial expression system
B2: MPT64: secreted antigen of Mycobacterium tuberculosis, recombinant, produced in a bacterial expression system (protein)
chain: APKTYCEELKGTDTGQACQIQMSDPAYNINISLPSYYPDQKSLENYIAQTRDKFLSAATSSTPREAPYELNITSATYQSAIPPRGTQAVVLKVYQNAGGTHPTTTYKAFDWDQAYRKPITYDTLWQADTDPLPVVFPIVQGELSKQTGQQVSIAPNAGLDPVNYQNFAVTNDGVIFFFNPGELLPEAAGPTQVLVPRSAIDSMLA
modifications: left off: small tags and cut ends
notes: secreted antigen of Mycobacterium tuberculosis, recombinant, produced in a bacterial expression system

What was measured:
p47phox = molecular target: T1, p47phox; details: read-out: Kd of interaction with p47phox; fluorescently labeled MPT63 titrated with unlabeled p47phox, 25° C., pH 7.4
Procedure: (§1) The interaction of MPT63-TBK1 with p47phox and the interaction of MPT64-TBK1 with HK2 were monitored using a Fluoromax-4 spectrofluorometer (HORIBA Scientific) which was performed as previously described (Guo et al., 2005). MPT63 and MPT64, respectively, were labeled with BODIPY FL Iodoacetamide (ThermoFisher Scientific) according to the manufacturer's instructions. The labeled MPT63 or MPT64 was excited at 350 nm and detected through a cutoff filter at 512 nm. The fluorescently labeled MPT63 or MPT64 was titrated with unlabeled TBK1, p47phox or HK2 for kinetic analysis. The excitation and emission wavelengths were 498 mm and 518 nm, respectively. The obtained data were verified using the Grafit program, and all fluorescence measurements were performed at 25° C. in 30 mM Tris, pH 7.4, 150 mM NaCl and 1 mM dithiothryitol.

TBK1 and p47phox = assay: Co-immunoprecipitation of rMPT63 in THP-1 cells; type: cell-based, human; details: 5 μg/ml
TBK1 = TBK1 (Homo sapiens, UniProt Q9UHD2); details: read-out: Kd of interaction with TBK1; fluorescently labeled protein titrated with unlabeled TBK1, curve fitting, 25° C., pH 7.4
Procedure: as §1

TBK1 and HK2 = molecular target: T2, TBK1 and HK2; assay: Co-immunoprecipitation of rMPT64 in THP-1 cells; type: cell-based; details: 5 μg/ml
HK2 = HK2 (Homo sapiens, UniProt P52789)
HK2, sequence (P52789 whole entry): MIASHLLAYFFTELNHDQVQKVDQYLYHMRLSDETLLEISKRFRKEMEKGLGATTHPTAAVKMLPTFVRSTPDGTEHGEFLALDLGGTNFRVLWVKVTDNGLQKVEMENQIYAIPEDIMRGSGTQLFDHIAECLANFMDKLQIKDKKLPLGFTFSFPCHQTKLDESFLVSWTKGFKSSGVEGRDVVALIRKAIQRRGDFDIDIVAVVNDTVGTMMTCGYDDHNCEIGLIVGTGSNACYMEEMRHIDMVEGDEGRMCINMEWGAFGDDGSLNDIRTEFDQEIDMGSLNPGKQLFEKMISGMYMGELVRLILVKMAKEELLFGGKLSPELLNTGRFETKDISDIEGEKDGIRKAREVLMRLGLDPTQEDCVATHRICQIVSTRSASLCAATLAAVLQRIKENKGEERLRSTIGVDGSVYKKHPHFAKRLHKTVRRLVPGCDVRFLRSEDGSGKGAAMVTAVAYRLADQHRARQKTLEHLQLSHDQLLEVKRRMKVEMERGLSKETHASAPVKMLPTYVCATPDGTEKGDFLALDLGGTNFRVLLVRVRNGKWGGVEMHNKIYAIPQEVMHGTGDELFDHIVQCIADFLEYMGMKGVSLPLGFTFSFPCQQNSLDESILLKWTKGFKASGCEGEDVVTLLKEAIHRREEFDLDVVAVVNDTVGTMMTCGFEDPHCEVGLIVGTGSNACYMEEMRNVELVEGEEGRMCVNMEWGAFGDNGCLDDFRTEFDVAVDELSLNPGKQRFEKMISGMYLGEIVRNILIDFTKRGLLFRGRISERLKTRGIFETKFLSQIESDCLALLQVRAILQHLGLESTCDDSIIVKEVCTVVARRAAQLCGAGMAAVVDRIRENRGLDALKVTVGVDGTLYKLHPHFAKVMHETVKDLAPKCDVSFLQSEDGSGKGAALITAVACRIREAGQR
Procedure: as §1

Molecule | Kd (p47phox) | endogenous interaction with TBK1 and p47phox (TBK1 and p47phox) | Kd (TBK1) | interaction with phosphorylated TBK1 (S172) (TBK1 and HK2) | Kd (HK2)
B1 | 345 nM | endogenously interacted | 178 nM | – | –
B2 | – | – | 193 nM | interacts | 134 nM
